Assay results taken from patent KR20230039786A (dated 2023).
Where a chain is given by its changes, count along the chain named.

B1: 5B6 anti-NP monoclonal antibody (antibody, V domains shown)
VH: QVQLQESGPELKKPGETVKISCTASGYTFANYGMNWVKQAPGKGLKWMGWINTYTGETTYADDFKGRFAFSLETSASTASLQINKLKNEDTATYFCTRSVLLRSYFDYGGQGTTLTVSS
VL: DIVMTQSPKFMSTSVGDRVSITCEASQDVTTAVAWYQQKPGQSPKLLIYSASYRFAGVPDRFTGSGSGTDFTFTISSVQAEDLAVYYCQQHYSSPLTFGAGTKLELK
B2: 3E10 anti-NP monoclonal antibody (antibody, V domains shown)
VH: EVQLEQSGPELVRPGVSVKISCKGSGYTFTDYAMHWVKQSHAKSLEWIGVISTYSGNTSYNQKFKGKATMTVDKSSSTAYMELARLTAEDSAIYYCANGGNYGFDYWGQGTTLTVSS
VL: DIVLTQSPKFMSTSVGDRVSITCKASQDVGTAVAWYQQKPGQSPRLLIYWTSTRHTGVPDRFTGSGSGTDFTLTISNVQSEDLADYFCQQYSSYPLTFGGGTKLEIK
B3: 5B6.8 anti-NP monoclonal antibody (antibody, V domains shown)
VH: B2 VH with E1Q, E5Q, Q6E
VL: B1 VL with M4I, A56T
B4: 3F10 anti-NP monoclonal antibody (antibody, V domains shown)
VH: EVQLEESGPELKKPGETVKISCKASGYTFTDYSMHWVKQAPGKGLKWMGWINTETGEPTYADDFKGRFAFSLETSASTASLQINNLKNEDTATYFCGSGSRYSWYFDVWGAGTTVTVSS
VL: DIVLTQSPKFMSTSLGDRVSVTCKASQSVGTNVAWFQQNSGQSPKALIYSASYRYSGVPDRFTGSGSGTDFTLTISNVKSEDLAEYFCQQYNSYPLAFGGGTKVEIK

Target: SARS-CoV NP antigen (Sino Biological) (SARS-CoV, UniProt P59595 1-422)
Assay: indirect ELISA, SARS-CoV NP coated, anti-mouse IgG-HRP

Chain of SARS-CoV NP antigen (Sino Biological) (P59595 whole entry): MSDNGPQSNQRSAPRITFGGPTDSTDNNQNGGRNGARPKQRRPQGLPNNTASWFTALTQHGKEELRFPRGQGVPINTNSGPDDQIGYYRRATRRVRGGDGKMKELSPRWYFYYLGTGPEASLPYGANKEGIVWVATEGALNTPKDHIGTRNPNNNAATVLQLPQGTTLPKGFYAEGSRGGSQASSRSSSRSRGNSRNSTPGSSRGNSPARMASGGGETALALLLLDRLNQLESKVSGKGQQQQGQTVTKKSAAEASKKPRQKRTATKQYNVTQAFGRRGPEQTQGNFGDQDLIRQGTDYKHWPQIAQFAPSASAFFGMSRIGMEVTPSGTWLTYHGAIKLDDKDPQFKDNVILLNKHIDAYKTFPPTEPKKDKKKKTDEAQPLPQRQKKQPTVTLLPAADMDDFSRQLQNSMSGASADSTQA

Binder | EC50 [ng/mL]
B1 | 4
B2 | 2
B3 | 1320
B4 | 10
